# Laboratory results published in the supplement of paper PMC7125110.
# ± gives the standard error. For some of these results: This sample holds only a part of the variants without activity.
# B1: glmS ribozyme (parent)
# chain: AUAAAAGCGCCAGAACUACAGAAAUGUAGUUGACGAGGAGGAGGUUUAUCGAAUUUUCGGCGGAUGCCUCCAAA
# Columns and labels:
# Conditions in all cases: with glucosamine-6-phosphate
# glucosamine-6-phosphate [1] = variants of: B1; test: kcat; higher = faster cleavage; RNA array
# Method in brief: (§1)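 Tiles bearing barcoded ribozyme variants, transcribed in situ by E. coli RNA polymerase on sequenced MiSeq chips, were imaged over ~14 h at 37 °C using a hybridised Cy3 probe. Glucosamine-6-phosphate was supplied at 40 μM to 10 mM in HEPES/KCl/Mg(OAc)2 buffer. kobs came from one- or two-exponential decay fits to normalised per-tile medians, and weighted Michaelis–Menten fits then provided kcat and KM.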
# glucosamine-6-phosphate [2] = variants of: B1; test: KM; higher = weaker cofactor use; RNA array
# Method in brief: as §1
# glucosamine-6-phosphate [3] = variants of: B1; test: self-cleavage kobs at 640 uM GlcN6P; higher = faster cleavage; RNA array
# Method in brief: as §1
# glucosamine-6-phosphate [4] = variants of: B1; test: self-cleavage kobs at 2500 uM GlcN6P; higher = faster cleavage; RNA array
# Method in brief: as §1
# glucosamine-6-phosphate [5] = variants of: B1; test: self-cleavage kobs at 10000 uM GlcN6P; higher = faster cleavage; RNA array
# Method in brief: as §1
# glucosamine-6-phosphate [6] = variants of: B1; test: self-cleavage kobs at 40 uM GlcN6P; higher = faster cleavage; RNA array
# Method in brief: as §1
# glucosamine-6-phosphate [7] = variants of: B1; test: self-cleavage kobs at 160 uM GlcN6P; higher = faster cleavage; RNA array
# Method in brief: as §1
Variant,kcat (glucosamine-6-phosphate [1]) [s⁻¹],KM (glucosamine-6-phosphate [2]) [µM],self-cleavage kobs at 640 uM GlcN6P (glucosamine-6-phosphate [3]) [s⁻¹],self-cleavage kobs at 2500 uM GlcN6P (glucosamine-6-phosphate [4]) [s⁻¹],self-cleavage kobs at 10000 uM GlcN6P (glucosamine-6-phosphate [5]) [s⁻¹],self-cleavage kobs at 40 uM GlcN6P (glucosamine-6-phosphate [6]) [s⁻¹],self-cleavage kobs at 160 uM GlcN6P (glucosamine-6-phosphate [7]) [s⁻¹]
A39U G44C,0.000268 ± 4.5e-05,1920 ± 770,6.01e-05 ± 1.7e-05,0.0002 ± 3.9e-05,0.000212 ± 3.2e-05,–,–
C16U A52U,0.00041 ± 1.4e-05,5030 ± 320,4.82e-05 ± 1.2e-05,0.000132 ± 2.2e-05,0.000274 ± 2.9e-05,< 1e-05,–
A42U C70A,0.00013 ± 6.8e-06,813 ± 290,–,9.98e-05 ± 1.2e-05,0.00012 ± 9.1e-06,–,–
C50G G66A,4.08e-05 ± 1e-05,–,–,–,–,–,5.66e-05 ± 2.2e-05
C34G U46G C50U C67U,1.54e-05 ± 5.4e-06,–,–,–,–,–,–
C11A A14U,9.91e-05 ± 4.5e-06,947 ± 180,4.4e-05 ± 1e-05,6.89e-05 ± 9.1e-06,9.18e-05 ± 8.6e-06,–,–
A15G C70G,0.000355 ± 6.5e-05,180 ± 79,0.000303 ± 2.7e-05,–,0.00033 ± 5.4e-05,8.28e-05 ± 1.3e-05,0.000137 ± 1.9e-05
U30A U47G,0.000918 ± 0.00028,–,0.000406 ± 8.6e-05,0.000481 ± 0.00024,0.00109 ± 0.00021,7.81e-05 ± 2.4e-05,–
G37C C71U,3.39e-05 ± 1.3e-06,662 ± 140,–,2.55e-05 ± 9.5e-06,3.23e-05 ± 8.2e-06,–,–
U30C G32A,0.00241 ± 0.00034,3840 ± 740,0.000321 ± 4.3e-05,0.000932 ± 8.8e-05,0.00181 ± 0.00026,–,0.000106 ± 1.2e-05
U46A C70A,0.000184 ± 2.2e-05,633 ± 260,0.000115 ± 2.6e-05,0.000146 ± 2.7e-05,0.000167 ± 2.9e-05,–,–
A15C G41C,3.33e-05 ± 2.9e-06,1850 ± 570,–,–,2.79e-05 ± 1.2e-05,–,–
G32U G40C,0.000104 ± 1.3e-05,1250 ± 520,2.66e-05 ± 1.3e-05,7.79e-05 ± 1.1e-05,8.66e-05 ± 1.3e-05,–,–
C8A C61U G66A,< 1e-05,–,< 1e-05,< 1e-05,–,–,–
A53U C58A,0.000327 ± 1.5e-05,3010 ± 250,5.94e-05 ± 5.9e-06,0.000143 ± 1.3e-05,0.000256 ± 2.2e-05,–,–
A39G U47A,0.0304 ± 0.014,–,0.00788 ± 0.0025,0.0164 ± 0.005,0.0441 ± 0.011,0.00119 ± 0.00019,0.00231 ± 0.00088

Variant,kcat (glucosamine-6-phosphate [1]) [s⁻¹],KM (glucosamine-6-phosphate [2]) [µM],self-cleavage kobs at 640 uM GlcN6P (glucosamine-6-phosphate [3]) [s⁻¹],self-cleavage kobs at 2500 uM GlcN6P (glucosamine-6-phosphate [4]) [s⁻¹],self-cleavage kobs at 10000 uM GlcN6P (glucosamine-6-phosphate [5]) [s⁻¹],self-cleavage kobs at 40 uM GlcN6P (glucosamine-6-phosphate [6]) [s⁻¹],self-cleavage kobs at 160 uM GlcN6P (glucosamine-6-phosphate [7]) [s⁻¹]
G29U A42G,0.00693 ± 0.0016,1770 ± 660,0.00202 ± 0.00037,–,0.00626 ± 0.0011,0.000272 ± 0.00011,0.000486 ± 0.00015
A14G A53U,0.0349 ± 0.012,1060 ± 450,0.011 ± 0.0013,0.0342 ± 0.015,0.0446 ± 0.0086,0.00142 ± 0.00015,0.00482 ± 0.00076
U46C A53U,0.00168 ± 0.00018,1640 ± 260,0.000471 ± 9.9e-05,0.0012 ± 0.00023,0.00133 ± 0.00028,3.88e-05 ± 1.2e-05,0.000145 ± 3.3e-05
A33U U65A,3.37e-05 ± 1.5e-06,–,< 1e-05,–,–,< 1e-05,< 1e-05
U46C U65A,0.00399 ± 0.0019,–,0.000444 ± 0.00012,0.00143 ± 0.00037,0.00295 ± 0.00065,7.93e-05 ± 2.3e-05,–
C11A C50A,1.11e-05 ± 3.1e-06,–,–,–,–,–,–
A14U U55C,0.00666 ± 0.0014,1760 ± 500,0.00161 ± 0.00025,0.00352 ± 0.00053,0.0066 ± 0.001,0.000181 ± 2.3e-05,0.000488 ± 8.3e-05
C34G C68A,2.06e-05 ± 8.4e-06,–,–,–,–,–,–
A14C G37C,< 1e-05,–,< 1e-05,–,< 1e-05,< 1e-05,–
U57C U65A,1.91e-05 ± 3.6e-07,1410 ± 140,–,–,–,< 1e-05,–
C10U C70U,2.53e-05 ± 1.3e-06,777 ± 240,–,1.83e-05 ± 8e-06,2.38e-05 ± 7e-06,–,–
U57C A64G,0.000236 ± 3.1e-06,3140 ± 87,3.93e-05 ± 7.8e-06,0.000106 ± 1.3e-05,0.000179 ± 1.7e-05,–,–
C16A U46G,0.000285 ± 5.2e-05,1720 ± 670,7.33e-05 ± 1.3e-05,0.000212 ± 3e-05,0.000222 ± 3.3e-05,–,–
U45A U49G,0.00163 ± 0.00032,1560 ± 570,0.000385 ± 5.1e-05,0.0012 ± 0.00012,0.00132 ± 0.00015,5.25e-05 ± 1e-05,0.000194 ± 4.9e-05
A15C G32U,0.00121 ± 6.6e-05,6690 ± 540,0.000107 ± 1.4e-05,0.000321 ± 4.8e-05,0.000731 ± 7.6e-05,–,–
A39G U55C,0.0858 ± 0.023,3000 ± 920,0.0122 ± 0.0029,–,0.0709 ± 0.018,0.00123 ± 0.00015,0.00406 ± 0.0011
